Measurements as given in patent publication US20170240635A1 (AGENCY FOR SCIENCE TECHNOLOGY AND RESEARCH, published 2017).
Residue numbers refer to the chain shown, from its start. Where two headings read alike, the source gives them in different places.

B1: A3-IgG4 (antibody, V domains shown)
VH: QVQLVQSGGGVVQPGRSLRLSCAASGFTFSSYGMHWVRQAPGKGLEWVAVISYDGSNKYYADSVKGRFTISRDNSKNTLYLQMNSLRAEDTAVYYCASDLGAGPYYYGKDHWGQGTTVTVSS
VL: LPVLTQPPSASGTPGQRVTISCSGSSSNIKFNSVNWYQQLPGTAPKLLIYSNNQRPSGVPDRFSGSKSGTSASLAISGLQSEDEADYFCASWDDVLYGSVFGGGTKLTVL
notes: also called anti-PD-1 antibody clone A3 (human IgG4)
B2: A10-IgG4 (antibody, V domains shown)
VH: B1 VH with H111V
VL: B1 VL with V95Y, L96Y, S99T, V100I
notes: also called anti-PD-1 antibody clone A10 (human IgG4)

Key:
[1] = target: T1, PD-1 on exhausted human T cells (human, UniProt Q15116 25-288); test: flow cytometry (MFI); IgG4 on human T cells activated 7 days with allogeneic DCs, fluorescent secondary antibody
T1 construct: whole, on cells; T cells exhausted by 7 days of culture with allogeneic monocyte-derived dendritic cells
Description: (§1) 50,000 T cells isolated from a healthy donor were incubated in the presence of 5,000 monocyte-derived DCs from another donor for 7 days at 37° C. Antibodies, expressed as IgG4, were incubated with such activated T cells for 30 minutes in PBS. After a wash in PBS, a fluorescent labelled secondary antibody was added for 30 minutes and then washed in PBS. Cells were resuspended in FACS buffer and binding of the antibody to the cells was monitored by flow cytometry (FIGS. 6 and 7).

[2] = target: T1, PD-1 on exhausted human T cells; test: as above; remark: listed apart in the source
Description: as §1

T1 sequence (Q15116 25-288): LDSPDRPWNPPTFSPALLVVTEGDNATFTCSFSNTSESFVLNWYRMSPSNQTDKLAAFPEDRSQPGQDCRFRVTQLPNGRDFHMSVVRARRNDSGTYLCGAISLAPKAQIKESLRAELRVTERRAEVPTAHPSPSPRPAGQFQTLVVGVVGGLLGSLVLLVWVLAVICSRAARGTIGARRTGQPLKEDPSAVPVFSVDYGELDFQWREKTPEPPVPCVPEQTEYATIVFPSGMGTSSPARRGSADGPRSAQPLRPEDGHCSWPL

Binder	EC50 [1] [nM]	EC50 [2] [nM]
B1	0.855	
B2	0.262	0.253
